From publication PMC4491848 come the findings set out here.

The assay deals with platelet membrane glycoprotein (GP) Ib on human platelets (human (endogenous in platelets)) (UniProt P07359).
UniProt P07359, sequence (P07359 17-652, chain 1 of 2): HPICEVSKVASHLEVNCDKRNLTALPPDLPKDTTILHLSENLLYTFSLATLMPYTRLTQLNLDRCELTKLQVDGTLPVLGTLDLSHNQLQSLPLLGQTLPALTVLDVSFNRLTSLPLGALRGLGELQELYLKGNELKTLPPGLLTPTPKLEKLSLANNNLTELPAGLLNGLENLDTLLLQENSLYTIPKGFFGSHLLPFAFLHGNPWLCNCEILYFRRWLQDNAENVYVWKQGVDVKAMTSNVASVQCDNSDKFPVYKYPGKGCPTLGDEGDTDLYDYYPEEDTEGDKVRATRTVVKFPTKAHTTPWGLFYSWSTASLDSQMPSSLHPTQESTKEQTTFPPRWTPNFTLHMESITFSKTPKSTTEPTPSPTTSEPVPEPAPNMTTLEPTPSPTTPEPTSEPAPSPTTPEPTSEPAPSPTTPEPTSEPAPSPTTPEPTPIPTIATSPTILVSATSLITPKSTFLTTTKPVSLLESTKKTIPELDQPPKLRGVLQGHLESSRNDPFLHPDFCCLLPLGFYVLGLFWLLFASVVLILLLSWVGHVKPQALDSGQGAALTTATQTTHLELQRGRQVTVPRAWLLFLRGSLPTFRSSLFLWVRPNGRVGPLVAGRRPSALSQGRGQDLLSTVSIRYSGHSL
UniProt P07359, sequence (P13224 26-206, chain 2 of 2, further chain): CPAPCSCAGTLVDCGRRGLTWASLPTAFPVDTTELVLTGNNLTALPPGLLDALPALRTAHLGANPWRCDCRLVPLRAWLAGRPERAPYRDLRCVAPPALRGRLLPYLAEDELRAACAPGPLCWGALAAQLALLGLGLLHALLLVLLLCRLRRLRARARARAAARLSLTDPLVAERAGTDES

The substance recombinant Agkisacutacin (complex) displayed a ristocetin-induced platelet aggregation rate in human platelet-rich plasma, dose series up to 3 μg/ml; value at the 3 μg/ml dose; the pair said to be blocked is GPIb and vWF of 5.65%. For natural Agkisacutacin (complex) the value was 3.46%.
